# Assay: soluble on expression in E. coli; label from the status in PepcDB or PDB records
row,Sequence,soluble on expression in E. coli
1,MGSDKIHHHHHHMAYRSAPIADDIIWRAAPQPEDASLADAVRETIASTRKHLLDFIRLDETPPPAAMTLAQWTRPATFRSLLAAYSDHIYRHTPGLPRENKPLLSLWAQWYIGLMTPPLMLALLTQARAINVSAEHIHVEFHETGRAACFWLDVHQDNLATERSPEERMETLIVSALQPVIQALEATGDINAKLIWSNTGYLINWYLTEMKPLLGEALLATLRQRCFFEKQLSDGQDNPLWRTVVMRDGLLVRRTCCQRYRLPDVQQCGDCTLK,not soluble
2,IPLKSIEVPFEGELLPGYAIISEDKAQDTLIVVGGGDTSREDLFYMLGYSGWEHDYNVLMVDLPGQGKNPNQGLHFEVDARAAISAILDWYQAPTEKIAIAGFSGGGYFTAQAVEKDKRIKAWIASTPIYDVAEVFRISFSTALKAPKTILKWGSKLVTSVNKVAEVNLNKYAWQFGQVDFITSVNEVLEQAQIVDYNKIDVPSLFLVGAGEDSELMRQSQVLYDNFKQRGIDVTLRKFSSESGADAHCQVNNFRLMHYQVFEWLNHIFKKKD,not soluble
3,MKNPRHIAVIDIGKTNAKLALVDLQNHREIAVLTRPNTVLPGPPWRHFDTDGHWDFLLAALKVLHGEHGIDAISISTHGASVVLLDAQGDLAAPVLDYEHPIPADIAQAYDAIRPPFAQTGSARLANGLNVGAQLFYQFAQDPGLRDRTRHIVGYPQYWGHRLTGEFAWDVTSIGCHTDLWEPVTGRFSSLVDRLGIAEKLAPVRHCADVLGSILPEVAAATGLSADTPVTVGIHDSNASLYPHLLTQEAPFSVVSTGTWVVAMAVGSKVPGLDPTRDTLVNVNAMGQPVPSARFMGGREHEVIQAGQPCPPTPQDVAQVLADSVMILPAVEPASGPFQGRKMRWSGPEPAPGTGPRSAALSFYLALMTSTCLALIAARGVTIVEGPFAQNREFKSMLSVATGRAVLHSQSATGTSMGASLLFSSDRTPPLPQTNVSEEDAQAYRTYAKEWHQQITLEHHHHHH,not soluble
4,MVAEVSPKLAASPMKKPFGFRGKMGKWCCCCFPCCRGSGKNNMGAWRDHDDSAFTEPRYHVRREDLGKLHRAAWWGEVPRADLIVMLRGPGINKRDKKKRTALHLACANGNSEVVSLLLDRQCQLHVFDSKKRTALIKAVQCQEDECALMLLQHGTDPNLPDMYGNTALHYAVYNEDKLMAKTLLLYGADIESKNKGGLTPLLLAVHGQKQRMVKFLIKKKANLNALDRFGRICQLLSDYKENQMPNNSSGNSNPEQDLKLTSEEEPQRLKGSENSQHEKVTQEPDINKDCDREVEEEMQKHGSNNVGLSENLTDGAAAGNGDGGLVPQRKSRKHENQQFPNTEIEEYHRPEKKSNEKNKVKSQIHSVDNLDDITWPSEIASEDYDLLFSNYETFTLLIEQLKMDFNDSASLSKIQDAVISEEHLLELKNSHYEQLTVEVEQMENMVHVLQK,not soluble
5,MDSRLSDFLARAESVLARLEPLLPAVREAVDWERSLAARWHRDGRSGYLQPLEVSLDLRLADLLGVERQREQLERNTRQFVAGQPANHALLWGARGTGKSSLVRALLAELAGAGLRLIEIERDHLADLPRVVEQLQGLPQRFVLFCDDLSFDAGEGDYRVLKSVLDGSLEQAPENVLLYATSNRRHLVSEKQSDNENWKMVDGELHPNEAVEDKIALSDRFGLWLSFYPFTQEHFLSVVHHWVDVLAEKAGLAWSWSEELEKEAIRWALGRGNRNGRCAYQFSRYWVGKQLLERQA,not soluble
6,MSTPFGLDLGNNNSVLAVARNRGIDIVVNEVSNRSTPSVVGFGPKNRYLGETGKNKQTSNIKNTVANLKRIIGLDYHHPDFEQESKHFTSKLVELDDKKTGAEVRFAGEKHVFSATQLAAMFIDKVKDTVKQDTKANITDVCIAVPPWYTEEQRYNIADAARIAGLNPVRIVNDVTAAGVSYGIFKTDLPEGEEKPRIVAFVDIGHSSYTCSIMAFKKGQLKVLGTACDKHFGGRDFDLAITEHFADEFKTKYKIDIRENPKAYNRILTAAEKLKKVLSANTNAPFSVESVMNDVDVSSQLSREELEELVKPLLERVTEPVTKALAQAKLSAEEVDFVEIIGGTTRIPTLKQSISEAFGKPLSTTLNQDEAIAKGAAFICAIHSPTLRVRPFKFEDIHPYSVSYSWDKQVEDEDHMEVFPAGSSFPSTKLITLNRTGDFSMAASYTDITQLPPNTPEQIANWEITGVQLPEGQDSVPVKLKLRCDPSGLHTIEEAYTIEDIEAGSDTKTVKKDDLTIVAHTFGLDAKKLNELIEKENEMLAQDKLVAETEDRKNTLEEYIYTLRGKLEEEYAPFASDAEKTKLQGMLNKAEEWLYDEGFDSIKAKYIAKYEELASLGNIIRGRYLAKEEEKKQAIRSKQEASQMAAMAEKLAAQRKAEAEKKEEKKDTEGDVDMD,soluble
7,MRKIIVGSRKSKLALTQTNWFIDQLKALGLPYEFEVKEIVTKGDVILDVTLSKVGGKGLFVKEIEHALLTKEIDMAVHSMKDMPAVLPEGLMIGCTPKRVDPRDAFISKSGASYKELAEGAILGTSSLRRSAQLLAARPDLQVKWIRGNIDTRLRKLKEEDYDAIILATAGLQRMGWDNEVITEHLDETLCVPAVGQGALAIECREDDKDLLQLLAHINDAVTEKTVAAERVFLHKLEGGCQVPIAGYATITENDAIELTALVGSMDGSVLLKETVVGTDPEKVGLEAADRLIKQGAKELILAANKGQQ,not soluble
8,MGSDKIHHHHHHMQQAQLPLEAILYQYDLYPEAVEDHGENVKKLVTKHGLFALKKTQMTRSQADWFVYCMRKLDRLGYRKVVPLVPTKFGEYTLTDRDTSFYVMPWIESIPYNARESQEEKLADQLGVIHRLTVKTQPFSKEQLEASYNELRDRWDSRWLTMNRFADQAERKTYMSPYELTLLTHFSFLEHMAHTAKESLEAWYETCLEKEKYRSVLCHGRLSRAHAFFNERHEPLLFNFERAALDTPARDLASFFRHSFPHALWSEEEGHRWLYRYEQHLPLLEEEKRLLHAYLSFPDPVIYGIEAYQQQSGPPSEVKHVKRLEKRLLNLRRVERFSKSLLPTPAINESGLS,not soluble
9,VTQLPQPTWRWWQQRETEQVQSSHIDGEIVGALIPDLAVLHSEDASRAAVGREKHRCSLDPLGGGFRSRRASMPAGALLLSAVIAIQLDRMNARVFGDGWIGAQACMWVNKFHEESTVTALSPSSPIAQGSIARHPETMQSAYVRIAEGGSRDVAPAAQLQRRRP,not soluble
10,MGFIMEFAENLVLRLMENPEERDRKAREHIYEMHERCKKIKEMWALPIRPYGFWTFERHNAQLRWDPQISQVAGRRDPYDDLLEDNYTPPSSSSSSSD,soluble
11,MEALILEPSLYTVKAILILDNDGDRLFAKYYDDTYPSVKEQKAFEKNIFNKTHRTDSEIALLEGLTVVYKSSIDLYFYVIGSSYENELMLMAVLNCLFDSLSQMLRKNVEKRALLENMEGLFLAVDEIVDGGVILESDPQQVVHRVALR,soluble
12,AHHHHHHGSFEISIYLPTEIVFGPGKLEMLPKLVKKHGLSGKALIVTGRRSTKETGVLYRVQELLKQAGVESIVFDKIIPNPISTHVDEGAEIARKENVSFVVGLGGGSAIDSAKAIAMTAASGGKYWDYVPAVGGGKKPTGALPIVAIPTTHGTGTEADPYAVITNPETKEKQGIGYDVLFPKFSIVDPELMLTLPKDQTVYTSMDAFYHSIEAFLNVRANPYSDVLALDSMRRIVTYLPLAYENLRNLEARTQLAWASTEAGITETVTGVVANHALEHGLSGFYPEVPHGLGLCILGPYLFEYILDYAYEKLAIVGREVFGVYEPNDRKAAELAIKKLRDFQSLFGVNKKLRELGVKEEDIPEMARTAYRMMKPVIEATPGDLKVEDLEEIYRRAY,soluble
13,MGSDKIHHHHHHMNIRKYIWAYVVAMALICPGVKAQEQITIGVIQYDVRDIDKSFKALHEQGFGSCELNYSEKRFTKELAEQVKAASEKHRIRVTTLVGVPGSKSTWNFRQGPATIGLVPIDERFEKLDLYRKMIDFCVQAGIPAMHSHFGFIPEDPSSAQYKDFIEVMRGLATYAKERNVLIYFETGQETPITLIRAIRDIGTGNLFINCDLANLLMYGKSNSLDAVKLFGNLIKEFHAKDGKYPDPNNPYELGHEVPIPTGDVDFPAVIAELKKQGFKGAITIECELNGTRHDYVIQTRKYLQELLDR,not soluble
14,MSLNEQKAQQLLMFFREQAEKPLSVNELEEALNLEDAQEFKELVQVLNEMEEKGLLVRTRSNRYGVPEKMNLLRGVVQGHAKGFAFVIPEEEGHSDVYVSHVDLESAMNGDRVIVRLHPHSTGTRPEGKVIRILERGVSEVIGTYVDHQTYGLVVADDKRIPNDILIVNPEAQGLVDGHKVIVKITKYPEGRMSAEGEVISILGHKNDPGMDILSIIYKYGIPQAFPEEVLQQAQNIPDEIDAGEIKNRRDLRDEPLVTIDGADAKDLDDAVHVSRLPNGNFKLGVHIADVSYYVKEKSPIDLEAAERGTSVYLVDRVIPMIPHRLSNGICSLNPQVDRLTLSCEMEITRDGQVVNHEIFQSVIRTNERMTYHDVNKILVEKEEELRNRYELLVPMFEDMEELAAILRKKRFGRGAIDFDFKEAKVLVDEEGKPSDVVIRERGVAEKLIEEFMLAANETVAEHFHWLKLPFMYRIHEDPDSEKLGRFLEFITNFGYVVRGTANTVHPRALQKLLEEVRGEPEEQVISTVMLRSMQQAKYDPTSLGHFGLSTEFYTHFTSPIRRYPDLIVHRLIREYLIKGNVDEETQEKWRERLPEIARHCSEMERRAVDAERETDDVKKAQFMEDKIGETFTGIISGVTNFGIFVELENTIEGLVHVSYLTDDYYRYDEKHYAMIGERSGNVFRIGDEIEVRVINVNVEEASIDFEIVGMKPRKQRPDKSRPKVIEGGKRKKKENRGALALDGSKPKKKKKKKAFYENAPSAKRKKGKKRKREGHHHHHH,soluble
15,MNELVFLHSQYIEEEPYTTDEVIAKYSQIKRESVSKLIKKYQKDLEEFGKVGFEIRAMESGQKAKFYQLNEEQATLLITYLDNTEPVRRFKKALVRQFYDMKNGLYARRMERQKEKSVRKSMTDVIKELGLSPHYYKHYTDLVYKTALGFNAKQLREAREVSKKSTILDFLTSEEIEAVNKREQQVATLLTLKMDYDTIKSILNGQGVLYQTTLKMPVATN,not soluble
16,MGSSHHHHHHSSGLVPRGSMAGVDPFTGNSAYRSAASKTMNIYFPKKEAVTFDQANPTQILGKLKELNGTAPEEKKLTEDDLILLEKILSLICNSSSEKPTVQQLQILWKAINCPEDIVFPALDILRLSIKHPSVNENFCNEKEGAQFSSHLINLLNPKGKPANQLLALRTFCNCFVGQAGQKLMMSQRESLMSHAIELKSGSNKNIHIALATLALNYSVCFHKDHNIEGKAQCLSLISTILEVVQDLEATFRLLVALGTLISDDSNAVQLAKSLGVDSQIKKYSSVSEPAKVSECCRFILNLL,soluble
17,MKDDPKVHLEAKELWDQFHKRGTEMVITKSGRRMFPPFKVRCSGLDKKAKYILLMDIIAADDCRYKFHNSRWMVAGKADPEMPKRMYIHPDSPATGEQWMSKVVTFHKLKLTNNISDKHGFTILNSMHKYQPRFHIVRANDILKLPYSTFRTYLFPETEFIAVTAYQNDKITQLKIDNNPFAKGFRDTGNGRR,soluble
18,GIDTVGGKMTVCQLYDKKNSQRKNIKRATEKGRQYLMNALKNDPLGMRAIDTVKQSDAKEWAIRMSEKGYAYKTIDNYKRSLKASFYMAIQDDCIRKNPFDFKLSDVLEDDTEQKVILTPEQEERLLAFMEKDKIYSKYYDEVVLLLETGLRISEFCGLTMHIDMQNRILNIDHQLLKDSEIGYYIETPKTKNGKRELPLTERAYQAIQRILKSRGKAQPLIVGGYSNFLFLNREGLPKVAGNYEGMVRGLIKKYNKYHTDKLPNITPHSFRHTYCTNMANRGMNPNTLQYLMGHANITMTLGYYAHGTFQSAKAELERLAC,not soluble
